Non-standard residues stand in square brackets, D forms with d. No end group written: not given here. *: point of attachment. Phe(F5) = N[C@@H](Cc1c(F)c(F)c(F)c(F)c1F)C(=O)O; Desaminotyrosyl = O=C(CCc1ccc(O)cc1)*; NMeY = CN[C@@H](Cc1ccc(O)cc1)C(=O)O; Agmatine = N=C(N)NCCCCN*; Nle = CCCC[C@H](N)C(=O)O; Orn = NCCC[C@H](N)C(=O)O; Abu = CC[C@H](N)C(=O)O; Aoc = NCCCCCCCC(=O)O; Ava = NCCCCC(=O)O; GABA = NCCCC(=O)O
T1: GHRH receptor of human pituitary membranes (human, UniProt Q02643)
T1 sequence: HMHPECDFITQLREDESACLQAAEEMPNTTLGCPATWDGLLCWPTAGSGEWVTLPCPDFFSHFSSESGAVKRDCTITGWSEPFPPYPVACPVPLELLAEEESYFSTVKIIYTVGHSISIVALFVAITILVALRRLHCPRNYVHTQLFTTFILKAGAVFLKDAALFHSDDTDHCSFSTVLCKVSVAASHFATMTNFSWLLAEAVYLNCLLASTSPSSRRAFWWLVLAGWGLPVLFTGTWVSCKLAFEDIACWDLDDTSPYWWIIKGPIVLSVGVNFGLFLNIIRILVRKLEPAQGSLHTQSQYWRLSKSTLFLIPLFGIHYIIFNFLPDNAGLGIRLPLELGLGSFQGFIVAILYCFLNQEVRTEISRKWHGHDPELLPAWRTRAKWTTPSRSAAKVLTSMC

B1: P-27415 [N-Me-Tyr^1, Orn^12, Abu^15, Orn^21, Nle^27, Gab^30]hGHRH(1-30)NH-CH3 (peptide)
peptide: YADAIFTNSYRKVLGQLSARKLLQDIMSRQ
modifications: N-Me-Tyr^1; Orn^12; Abu^15; Orn^21; Nle^27; Gab^30 (in place of Gln^30); C-terminal -NH-CH3
B2: P-27414 [N-Me-Tyr^1, D-Ala^2, Fpa5^6, Orn^12, Abu^15, Orn^21, Nle^27, Gab^30]hGHRH(1-30)NH-CH3 (peptide)
peptide: B1 peptide
modifications: N-Me-Tyr^1; D-Ala^2; Fpa5^6; Orn^12; Abu^15; Orn^21; Nle^27; Gab^30 (in place of Gln^30); C-terminal -NH-CH3
B3: P-22325 [N-Me-Tyr^1, Gln^8, Orn^12, Abu^15, Orn^21, Nle^27, Asp^28, Apa^30]hGHRH(1-30)NH2 (peptide)
peptide: [NMeY]ADAIFTQSYR[Orn]VL[Abu]QLSAR[Orn]LLQDI[Nle]DR[Ava]-NH2
modifications: N-terminus assumed
SMILES: CCCC[C@H](NC(=O)[C@@H](NC(=O)[C@H](CC(=O)O)NC(=O)[C@H](CCC(N)=O)NC(=O)[C@H](CC(C)C)NC(=O)[C@H](CC(C)C)NC(=O)[C@H](CCCN)NC(=O)[C@H](CCCNC(=N)N)NC(=O)[C@H](C)NC(=O)[C@H](CO)NC(=O)[C@H](CC(C)C)NC(=O)[C@H](CCC(N)=O)NC(=O)[C@H](CC)NC(=O)[C@H](CC(C)C)NC(=O)[C@@H](NC(=O)[C@H](CCCN)NC(=O)[C@H](CCCNC(=N)N)NC(=O)[C@H](Cc1ccc(O)cc1)NC(=O)[C@H](CO)NC(=O)[C@H](CCC(N)=O)NC(=O)[C@@H](NC(=O)[C@H](Cc1ccccc1)NC(=O)[C@@H](NC(=O)[C@H](C)NC(=O)[C@H](CC(=O)O)NC(=O)[C@H](C)NC(=O)[C@H](Cc1ccc(O)cc1)NC)[C@@H](C)CC)[C@@H](C)O)C(C)C)[C@@H](C)CC)C(=O)N[C@@H](CC(=O)O)C(=O)N[C@@H](CCCNC(=N)N)C(=O)NCCCCC(N)=O
B4: P-27413 [Dat^1, Gln^8, His^11, Orn^12, Abu^15, His^20, Orn^21, Nle^27, Asp^28]hGHRH(1-29)NH-CH3 (peptide)
peptide: [Desaminotyrosyl]ADAIFTQSYH[Orn]VL[Abu]QLSAH[Orn]LLQDI[Nle]DR-NHMe
SMILES: CCCC[C@H](NC(=O)[C@@H](NC(=O)[C@H](CC(=O)O)NC(=O)[C@H](CCC(N)=O)NC(=O)[C@H](CC(C)C)NC(=O)[C@H](CC(C)C)NC(=O)[C@H](CCCN)NC(=O)[C@H](Cc1c[nH]cn1)NC(=O)[C@H](C)NC(=O)[C@H](CO)NC(=O)[C@H](CC(C)C)NC(=O)[C@H](CCC(N)=O)NC(=O)[C@H](CC)NC(=O)[C@H](CC(C)C)NC(=O)[C@@H](NC(=O)[C@H](CCCN)NC(=O)[C@H](Cc1c[nH]cn1)NC(=O)[C@H](Cc1ccc(O)cc1)NC(=O)[C@H](CO)NC(=O)[C@H](CCC(N)=O)NC(=O)[C@@H](NC(=O)[C@H](Cc1ccccc1)NC(=O)[C@@H](NC(=O)[C@H](C)NC(=O)[C@H](CC(=O)O)NC(=O)[C@H](C)NC(=O)CCc1ccc(O)cc1)[C@@H](C)CC)[C@@H](C)O)C(C)C)[C@@H](C)CC)C(=O)N[C@@H](CC(=O)O)C(=O)N[C@@H](CCCNC(=N)N)C(=O)NC
B5: P-21303 [N-Me-Tyr^1, D-Ala^2, Orn^12, Abu^15, Orn^21, Nle^27, Asp^28, Amc^30]hGHRH(1-30)NH2 (peptide)
peptide: [NMeY][dA]DAIFTNSYR[Orn]VL[Abu]QLSAR[Orn]LLQDI[Nle]DR[Aoc]-NH2
modifications: N-terminus assumed
SMILES: CCCC[C@H](NC(=O)[C@@H](NC(=O)[C@H](CC(=O)O)NC(=O)[C@H](CCC(N)=O)NC(=O)[C@H](CC(C)C)NC(=O)[C@H](CC(C)C)NC(=O)[C@H](CCCN)NC(=O)[C@H](CCCNC(=N)N)NC(=O)[C@H](C)NC(=O)[C@H](CO)NC(=O)[C@H](CC(C)C)NC(=O)[C@H](CCC(N)=O)NC(=O)[C@H](CC)NC(=O)[C@H](CC(C)C)NC(=O)[C@@H](NC(=O)[C@H](CCCN)NC(=O)[C@H](CCCNC(=N)N)NC(=O)[C@H](Cc1ccc(O)cc1)NC(=O)[C@H](CO)NC(=O)[C@H](CC(N)=O)NC(=O)[C@@H](NC(=O)[C@H](Cc1ccccc1)NC(=O)[C@@H](NC(=O)[C@H](C)NC(=O)[C@H](CC(=O)O)NC(=O)[C@@H](C)NC(=O)[C@H](Cc1ccc(O)cc1)NC)[C@@H](C)CC)[C@@H](C)O)C(C)C)[C@@H](C)CC)C(=O)N[C@@H](CC(=O)O)C(=O)N[C@@H](CCCNC(=N)N)C(=O)NCCCCCCCC(N)=O

target: T1, GHRH receptor of human pituitary …; test: competition vs 125I-JV-1-42, human pituitary membranes;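 further: pituitaries used were normal human glands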
From the text: Normal human pituitaries were purchased from the National Hormone and Peptide Program (A.F. Parlow, Los Angeles, County Harbor-UCLA Medical Center, Torrance, Calif.).

IC50 [nM]	relative affinity (binding potency) vs JI-38 [vs JI-38=1]	Binder
3.05	1.43	[NMeY][dA]DAI[Phe(F5)]TNSYR[Orn]VL[Abu]QLSAR[Orn]LLQDI[Nle]D[Agmatine] [P-20359 [N-Me-Tyr^1, D-Ala^2, Fpa5^6, Orn^12, Abu^15, Orn^21, Nle^27, Asp^28, Agm^29]hGHRH(1-29)NH2]
3.02	1.44	B1
1.56	2.79	B2
3.8	1.14	B3
2.45	1.78	B4
1.87	2.32	B5
1.22	3.57	[NMeY]ADAIFTQSYR[Orn]VL[Abu]QLSAR[Orn]LLQDI[Nle]SRQ-{GABA-NH2} [P-29703 [N-Me-Tyr^1, Gln^8, Orn^12, Abu^15, Orn^21, Nle^27, Gln-Gab^30]hGHRH(1-30)NH2]

From patent publication US20180250358A1, “GHRH AGONISTS FOR THE TREATMENT OF ISCHEMIC DISORDERS” (published 2018)
